In the supplement of paper PMC9233669:
Fewer inactive variants are shown than the library holds.

Legend:
biotinyl-Met-oxazolone = assay: self-aminoacylation, catalytic enhancement (BMO) (fold over background); higher = more active; k-Seq, kA / k0A0; sequences stand for … in GGGAAUGGAUCCACAUCUACGAAUUC…UUCACUGCAGACUUGACGAAGCUG
Procedure, shortened: (§1)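 Catalytic enhancement equals the median kA over the uncatalyzed rate, the latter read from the low-activity peak of a bimodal Gaussian fit. Values of kA came from fitting each sequence's fraction reacted to a pseudo-first-order model, with 1000 bootstraps. Reacted RNA was captured with streptavidin and quantified by triplicate qPCR and Illumina sequencing after 90 minutes at room temperature with 2–1250 μM biotinyl-aminoacyl-oxazolone and 0.43 μM mutagenized RNA pools bearing a 21-nt variable region.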

biotinyl-Trp-oxazolone = assay: self-aminoacylation, catalytic enhancement (BWO) (fold over background); higher = more active; k-Seq, kA / k0A0; sequences stand for … in GGGAAUGGAUCCACAUCUACGAAUUC…UUCACUGCAGACUUGACGAAGCUG
Procedure, shortened: as §1

biotinyl-Val-oxazolone = assay: self-aminoacylation, catalytic enhancement (BVO) (fold over background); higher = more active; k-Seq, kA / k0A0; sequences stand for … in GGGAAUGGAUCCACAUCUACGAAUUC…UUCACUGCAGACUUGACGAAGCUG
Procedure, shortened: as §1

biotinyl-Phe-oxazolone = assay: self-aminoacylation, catalytic enhancement (BFO) (fold over background); higher = more active; k-Seq, kA / k0A0; sequences stand for … in GGGAAUGGAUCCACAUCUACGAAUUC…UUCACUGCAGACUUGACGAAGCUG
Procedure, shortened: as §1

biotinyl-Ile-oxazolone = assay: self-aminoacylation, catalytic enhancement (BIO) (fold over background); higher = more active; k-Seq, kA / k0A0; sequences stand for … in GGGAAUGGAUCCACAUCUACGAAUUC…UUCACUGCAGACUUGACGAAGCUG
Procedure, shortened: as §1

biotinyl-Leu-oxazolone = assay: self-aminoacylation, catalytic enhancement (BLO) (fold over background); higher = more active; k-Seq, kA / k0A0; sequences stand for … in GGGAAUGGAUCCACAUCUACGAAUUC…UUCACUGCAGACUUGACGAAGCUG
Procedure, shortened: as §1

Row | Sequence | self-aminoacylation (biotinyl-Met-oxazolone) | self-aminoacylation (biotinyl-Trp-oxazolone) | self-aminoacylation (biotinyl-Val-oxazolone) | self-aminoacylation (biotinyl-Phe-oxazolone) | self-aminoacylation (biotinyl-Ile-oxazolone) | self-aminoacylation (biotinyl-Leu-oxazolone)
1 | GUUCACCUAGGUCAUCGGGUA [Fam2.2 aminoacylation ribozyme variant] | 50.6 | 33.1 | 22.6 | 381 | 24.6 | 68.3
2 | GUUCACCUAGGUCAUUGGGUG [Fam2.2 aminoacylation ribozyme variant] | 2.21 | 3.8 | 2.27 | 8.92 | 2.6 | 2.83
3 | GUUCACCUAGGUCCUCGGGUG [Fam2.2 aminoacylation ribozyme variant] | 4.16 | 5.27 | 4.16 | 25.5 | 3.49 | 4.67
4 | GUUCAUCUAGGUCAUCGGGUG [Fam2.2 aminoacylation ribozyme variant] | 5.79 | 7.23 | 3.72 | 35.3 | 4.19 | 7.61
5 | GUUUCCCUGGUCAUCGAGUGA [Fam2.1 aminoacylation ribozyme variant] | 14.6 | 16.2 | 7.85 | 48.7 | 6.97 | 14.8
6 | UAGCUUGCUAAUAGUCGCAAG [Fam3.1 aminoacylation ribozyme variant] | 1.88 | 1.84 | 2.22 | 3.65 | 2.34 | 1.8
7 | UAGGUUGCUAAUAGUCGCAAG [Fam3.1 aminoacylation ribozyme variant] | 1.2 | 2.01 | 1.2 | 1.91 | 1.4 | 1.15
8 | UAGUAUGCUAAUAGUCGCAAG [Fam3.1 aminoacylation ribozyme variant] | 1.28 | 1.68 | 1.13 | 2 | 1.62 | 1.57
9 | UAGUUUGCUAAAAGUCGCAAG [Fam3.1 aminoacylation ribozyme variant] | 1.93 | 3.43 | 1.6 | 3.92 | 1.53 | 1.57
10 | UAGUUUGCUAAUAGUCGCUAG [Fam3.1 aminoacylation ribozyme variant] | 1.01 | 1.08 | 1.13 | 1.68 | 1.18 | 1.13
11 | UAGUUUGCUGAUAGUCGCAAG [Fam3.1 aminoacylation ribozyme variant] | 0.993 | 1.61 | 1.47 | 2.35 | 1.61 | 1.08
12 | UAGUUUGGUAAUAGUCGCAAG [Fam3.1 aminoacylation ribozyme variant] | 1.74 | 1.96 | 1.57 | 2.29 | 1.73 | 1.81
13 | UAGUUUUCUAAUAGUCGCAAG [Fam3.1 aminoacylation ribozyme variant] | 1.25 | 1.59 | 1.23 | 1.6 | 1.52 | 1.3
14 | UCACACUUCAAGCAACCGGUC [Fam1B.1 aminoacylation ribozyme variant] | 0.801 | 0.796 | 1.05 | 1.26 | 0.984 | 0.739
15 | UCACACUUCAAGCAAGCGGUC [Fam1B.1 aminoacylation ribozyme variant] | 1.02 | 0.746 | 1.06 | 0.807 | 0.965 | 0.991
16 | UCACACUUCAAGCAAUCAGUC [Fam1B.1 aminoacylation ribozyme variant] | 0.645 | 5.72 | 0.932 | 17.9 | 0.777 | 0.817
17 | UCACACUUCAAGCCAUCGGUC [Fam1B.1 aminoacylation ribozyme variant] | 1.08 | 0.854 | 1.24 | 0.948 | 1.01 | 1.1
18 | UCACACUUCAUGCAAUCGGUC [Fam1B.1 aminoacylation ribozyme variant] | 0.793 | 0.656 | 0.887 | 0.632 | 0.85 | 0.736
19 | UCACACUUCGAGCAAUCGGUC [Fam1B.1 aminoacylation ribozyme variant] | 0.953 | 1.12 | 1.05 | 1.23 | 0.91 | 0.931
20 | UGUCACCUAGGUCAUCGGGUG [Fam2.2 aminoacylation ribozyme variant] | 4.27 | 5.31 | 3.6 | 23.9 | 3.84 | 3.64
21 | UUACAUCAAACAAUCGGUCUG [Fam1A.1 aminoacylation ribozyme variant] | 1.19 | 2.51 | 1.17 | 3.42 | 1.12 | 1.17
22 | UUACCUCAAACAAUCGGUCUG [Fam1A.1 aminoacylation ribozyme variant] | 0.97 | 2.66 | 1.01 | 3.03 | 0.975 | 0.861
23 | UUACUACAAACAAUCGGUCUG [Fam1A.1 aminoacylation ribozyme variant] | 0.904 | 1.31 | 0.833 | 1.62 | 1.04 | 0.856
24 | UUACUUCAAACAACCGGUCUG [Fam1A.1 aminoacylation ribozyme variant] | 1.03 | 1.51 | 1.15 | 1.38 | 1.36 | 1.22

Row | Sequence | self-aminoacylation (biotinyl-Met-oxazolone) | self-aminoacylation (biotinyl-Trp-oxazolone) | self-aminoacylation (biotinyl-Val-oxazolone) | self-aminoacylation (biotinyl-Phe-oxazolone) | self-aminoacylation (biotinyl-Ile-oxazolone) | self-aminoacylation (biotinyl-Leu-oxazolone)
25 | UUACUUCAAACAAUCGCUCUG [Fam1A.1 aminoacylation ribozyme variant] | 1.07 | 1.51 | 1.12 | 2.29 | 1.21 | 1.16
26 | UUACUUCAAACAAUCGGACUG [Fam1A.1 aminoacylation ribozyme variant] | 1.26 | 4.92 | 0.854 | 7.94 | 1.08 | 0.969
27 | UUACUUCAAACAAUCGGUAUG [Fam1A.1 aminoacylation ribozyme variant] | 1.02 | 7.05 | 1.02 | 12.4 | 1.16 | 1.3
28 | UUACUUCUAACAAUCGGUCUG [Fam1A.1 aminoacylation ribozyme variant] | 1.09 | 0.836 | 1.08 | 0.907 | 1.08 | 1.11
29 | UUUACCCGGGUCAUCGAGUGA [Fam2.1 aminoacylation ribozyme variant] | 7.15 | 9.17 | 4.02 | 43.1 | 3.4 | 7.17
30 | UUUACCCUAGUCAUCGAGUGA [Fam2.1 aminoacylation ribozyme variant] | 5.76 | 7.33 | 3.09 | 17.3 | 2.79 | 5.04
31 | UUUACCCUGGUCAUCGAAUGA [Fam2.1 aminoacylation ribozyme variant] | 1.22 | 1.78 | 1.05 | 1.02 | 1.31 | 1.19
32 | UUUACCCUGGUCAUCGAGUCA [Fam2.1 aminoacylation ribozyme variant] | 0.696 | 0.585 | 0.738 | 1.06 | 0.707 | 0.713
33 | UUUACCCUGGUCAUCUAGUGA [Fam2.1 aminoacylation ribozyme variant] | 8.71 | 10.9 | 4.43 | 46.3 | 4.72 | 8.63
34 | UUUCACAUAGGUCAUCGGGUG [Fam2.2 aminoacylation ribozyme variant] | 7.92 | 7.61 | 5.12 | 56.6 | 5.3 | 8.51
35 | UUUCACCGAGGUCAUCGGGUG [Fam2.2 aminoacylation ribozyme variant] | 7.19 | 6.08 | 5.17 | 44.3 | 4.52 | 6.07
36 | UUUCACCUACGUCAUCGGGUG [Fam2.2 aminoacylation ribozyme variant] | 4.85 | 4.58 | 3.3 | 31.6 | 2.88 | 5.75
37 | UUUCACCUAGAUCAUCGGGUG [Fam2.2 aminoacylation ribozyme variant] | 2.58 | 3.04 | 2.58 | 16.5 | 2.35 | 2.82
38 | UUUCACCUAGCUCAUCGGGUG [Fam2.2 aminoacylation ribozyme variant] | 1.77 | 2.5 | 2.73 | 1.68 | 2.03 | 2.24
39 | UUUCACCUAGGUCACCGGGUG [Fam2.2 aminoacylation ribozyme variant] | 3.77 | 5.47 | 3.87 | 26.7 | 3.8 | 5.2
40 | UUUCACCUAGGUCAUCGGCUG [Fam2.2 aminoacylation ribozyme variant] | 1.89 | 2.74 | 2.29 | 8.98 | 1.93 | 1.82
41 | UUUCACCUAGGUCAUCGGGUU [Fam2.2 aminoacylation ribozyme variant] | 10.4 | 7.39 | 5.7 | 44.3 | 6.15 | 12.6
42 | UUUCACCUAGGUCAUCGUGUG [Fam2.2 aminoacylation ribozyme variant] | 1.43 | 1.34 | 1.27 | 4.69 | 1.19 | 1.19
43 | UUUCACCUAGGUCAUUGGGUG [Fam2.2 aminoacylation ribozyme variant] | 2.51 | 3.77 | 2.66 | 17 | 2.59 | 2.57
44 | UUUCACCUGGGUCAUCGGGUG [Fam2.2 aminoacylation ribozyme variant] | 5.12 | 6.75 | 5.26 | 24.2 | 3.99 | 4.95
45 | UUUCAGCUAGGUCAUCGGGUG [Fam2.2 aminoacylation ribozyme variant] | 5.9 | 7.4 | 6.04 | 39 | 4.98 | 6.61
46 | UUUCCCCUAGGUCAUCGGGUG [Fam2.2 aminoacylation ribozyme variant] | 11.8 | 10.4 | 6.87 | 96.8 | 6.97 | 15.1
47 | UUUUACCUAGGUCAUCGGGUG [Fam2.2 aminoacylation ribozyme variant] | 10.3 | 10.4 | 6.67 | 56.1 | 6.78 | 13.5
48 | UUUUCCCUGGUCAUCGAGUGA [Fam2.1 aminoacylation ribozyme variant] | 11.1 | 14.3 | 5.81 | 16.5 | 5.39 | 11.1
